In assay [1] the target is T1, amphyphisin SH3 (AMPH_HUMAN), P49418.
T1 chain: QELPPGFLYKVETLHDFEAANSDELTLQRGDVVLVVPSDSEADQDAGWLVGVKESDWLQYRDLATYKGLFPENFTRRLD
The assay is described as follows: SPOT array.

The target in assay [2] is endophilin SH3 (SH3G2_HUMAN), Q99962. In words: SPOT array.

B1: Q96SL1 246-260 (peptide)
chain: LAYFPPRPPLPPSV
As to B1, the normalised SPOT signal, Boehringer light units (BLU); mean over the file's lines of this peptide in assay [1] was determined as 48.7; in assay [2], 2170.

B2: Q9HA29 107-120 (peptide)
chain: APEALPRPRREGEL
As to B2, the normalised SPOT signal, Boehringer light units (BLU); mean over the file's lines of this peptide in assay [1] was determined as 708; in assay [2] it was 318.

B3: Q01970 912-926 (peptide)
chain: LDASPRRPPGPTTS
B3: the results for the normalised SPOT signal, Boehringer light units (BLU); mean over the file's lines of this peptide in assay [1] and in assay [2] were 210 and 1090, respectively.

B4: Q9Y2Q2 234-247 (peptide)
chain: LDNALIRPGRFDMQ
As for B4, the figures for the normalised SPOT signal, Boehringer light units (BLU); mean over the file's lines of this peptide in assay [1] and in assay [2] were 240 and 80.5, respectively.

B5: Q9UGI0 529-542 (peptide)
chain: LAHILRRPIIVYGV
With B5, the normalised SPOT signal, Boehringer light units (BLU); mean over the file's lines of this peptide came to 45.6 in assay [1] and 629 in assay [2].

B6: Q9NQ53 317-330 (peptide)
chain: LAHVLRRPIVVVAD
In the case of B6, the figures for the normalised SPOT signal, Boehringer light units (BLU); mean over the file's lines of this peptide in assay [1] and in assay [2] were 37.4 and 37.7, respectively.

B7: Q8WWL8 44-57 (peptide)
chain: LDMALRRPPRLRLS
With B7, the normalised SPOT signal, Boehringer light units (BLU); mean over the file's lines of this peptide in assay [1] was determined as 4180; in assay [2], 1210.

B8: Q9UQ90 461-474 (peptide)
chain: LDGALMRPGRLDRH
As to B8, the normalised SPOT signal, Boehringer light units (BLU); mean over the file's lines of this peptide in assay [1] is 1540; in assay [2] it was 1590.

B9: P27539 244-257 (peptide)
chain: LSHPLARPRRDAEP
Turning to B9, the normalised SPOT signal, Boehringer light units (BLU); mean over the file's lines of this peptide in assay [1] is 984; in assay [2], 405.

B10: O75705 229-242 (peptide)
chain: KTKTLLRPERSRFD
With B10, the normalised SPOT signal, Boehringer light units (BLU); mean over the file's lines of this peptide in assay [1] is 239; in assay [2], 80.8.

B11: Q15678 740-754 (peptide)
chain: LARIPNKPPPEYPG
Take B11: the normalised SPOT signal, Boehringer light units (BLU); mean over the file's lines of this peptide in assay [1] is 30.4; in assay [2] it was 20.4.

B12: Q14566 49-62 (peptide)
chain: LAEELIRPERNTLV
For B12, the normalised SPOT signal, Boehringer light units (BLU); mean over the file's lines of this peptide in assay [1] is 19.4; in assay [2], -0.

B13: P46100 660-673 (peptide)
chain: KTTPLRRPTETNPV
For B13, the normalised SPOT signal, Boehringer light units (BLU); mean over the file's lines of this peptide in assay [1] came to 31.5; in assay [2], 57.5.

B14: Q96KY5 32-45 (peptide)
chain: LAITLRRPGSELEA
Consider B14, for which the normalised SPOT signal, Boehringer light units (BLU); mean over the file's lines of this peptide came to 16 in assay [1] and 27.9 in assay [2].

B15: Q9NPT6 50-63 (peptide)
chain: KTLRLWRPPRYPRK
B15: the normalised SPOT signal, Boehringer light units (BLU); mean over the file's lines of this peptide in assay [1] was 3230; in assay [2], 223.

B16: Q9ULI4 1214-1227 (peptide)
chain: KVTAPRRPQRYSSG
B16: the values for the normalised SPOT signal, Boehringer light units (BLU); mean over the file's lines of this peptide in assay [1] and in assay [2] were 16200 and 5620, respectively.

B17: Q9C000 828-841 (peptide)
chain: LSKTLRRPRSLLET
Take B17: the normalised SPOT signal, Boehringer light units (BLU); mean over the file's lines of this peptide was found to be 32.3 in assay [1] and 51.9 in assay [2].

B18: Q9ULH1 746-760 (peptide)
chain: LAELPQKPPPGDLP
B18: the normalised SPOT signal, Boehringer light units (BLU); mean over the file's lines of this peptide in assay [1] came to 62.4; in assay [2] it was 37.5.

B19: P12270 638-651 (peptide)
chain: LASTPKRPSTSQTV
As for B19, the normalised SPOT signal, Boehringer light units (BLU); mean over the file's lines of this peptide in assay [1] stood at 32; in assay [2], 78.

B20: P41440 199-212 (peptide)
chain: LALFLKRPKRSLFF
For B20, the normalised SPOT signal, Boehringer light units (BLU); mean over the file's lines of this peptide in assay [1] was 2280; in assay [2], 838.

B21: P16144 1316-1329 (peptide)
chain: LATQPKRPMSIPII
Regarding B21, the normalised SPOT signal, Boehringer light units (BLU); mean over the file's lines of this peptide in assay [1] was found to be 23.2; in assay [2], 660.

B22: Q9Y6D4 264-277 (peptide)
chain: LSYSLYRPRKYLYV
With B22, the results for the normalised SPOT signal, Boehringer light units (BLU); mean over the file's lines of this peptide in assay [1] and in assay [2] were 137 and 288, respectively.

B23: P27986 303-317 (peptide)
chain: APALPPKPPKPTTV
As for B23, the results for the normalised SPOT signal, Boehringer light units (BLU); mean over the file's lines of this peptide in assay [1] and in assay [2] were 199 and 2440, respectively.

B24: O94836 267-281 (peptide)
chain: LASRPTRPPEPRHI
Take B24: the normalised SPOT signal, Boehringer light units (BLU); mean over the file's lines of this peptide in assay [1] worked out at 1090; in assay [2] it was 22900.

B25: Q9P2E8 92-105 (peptide)
chain: KVFLLRRPPQAPLP
As for B25, the normalised SPOT signal, Boehringer light units (BLU); mean over the file's lines of this peptide in assay [1] is 21; in assay [2], 993.

B26: P07996 308-321 (peptide)
chain: LANELRRPPLSYHN
Take B26: the normalised SPOT signal, Boehringer light units (BLU); mean over the file's lines of this peptide in assay [1] amounted to 34.3; in assay [2] it was 173.

B27: Q9NYB9 126-139 (peptide)
chain: APANLERPVRYIRK
For B27, the normalised SPOT signal, Boehringer light units (BLU); mean over the file's lines of this peptide in assay [1] was 3060; in assay [2], 180.

B28: P20933 176-190 (peptide)
chain: KYSGPYKPPGILKQ
In the case of B28, the normalised SPOT signal, Boehringer light units (BLU); mean over the file's lines of this peptide in assay [1] came out at 39.4; in assay [2], 47.7.

B29: Q9HBF6 199-212 (peptide)
chain: LSQDLIRPIRKTGT
B29: the normalised SPOT signal, Boehringer light units (BLU); mean over the file's lines of this peptide in assay [1] turned out to be 1840; in assay [2] it was 276.

B30: O95985 371-384 (peptide)
chain: LAEGINRPRKGHDA
On to B30, for which the values for the normalised SPOT signal, Boehringer light units (BLU); mean over the file's lines of this peptide in assay [1] and in assay [2] were 99.3 and 198, respectively.

B31: P21580 199-212 (peptide)
chain: LSNILRRPIIVISD
Consider B31, for which the results for the normalised SPOT signal, Boehringer light units (BLU); mean over the file's lines of this peptide in assay [1] and in assay [2] were 26 and 84.4, respectively.

B32: O00501 199-212 (peptide)
chain: KYSAPRRPTATGDY
On to B32, for which the normalised SPOT signal, Boehringer light units (BLU); mean over the file's lines of this peptide in assay [1] stood at 46.4; in assay [2] it was 36.9.

B33: Q9C056 106-120 (peptide)
chain: LAELPGRPPIFWPG
B33: the normalised SPOT signal, Boehringer light units (BLU); mean over the file's lines of this peptide was found to be 53.5 in assay [1] and 98 in assay [2].

B34: Q9P1Y6 933-946 (peptide)
chain: LAARLRRPSPPEPW
For the molecule B34, the normalised SPOT signal, Boehringer light units (BLU); mean over the file's lines of this peptide worked out at 77.5 in assay [1] and 1180 in assay [2].

B35: O43379 748-761 (peptide)
chain: LAQPLRRPSSVGEL
Regarding B35, the normalised SPOT signal, Boehringer light units (BLU); mean over the file's lines of this peptide in assay [1] was found to be 37.1; in assay [2] it was 45.3.

B36: P46013 726-739 (peptide)
chain: KVHVPARPYRVLNN
B36: the normalised SPOT signal, Boehringer light units (BLU); mean over the file's lines of this peptide in assay [1] amounted to 4080; in assay [2], 1730.

B37: Q9UFP1 189-202 (peptide)
chain: LSGLIKRPGDLPEV
In the case of B37, the normalised SPOT signal, Boehringer light units (BLU); mean over the file's lines of this peptide in assay [1] stood at 21.9; in assay [2] it was 49.5.

B38: O75086 179-192 (peptide)
chain: AAPLLRRPHGGAGP
Regarding B38, the results for the normalised SPOT signal, Boehringer light units (BLU); mean over the file's lines of this peptide in assay [1] and in assay [2] were 25.6 and 102, respectively.
